Laboratory results from PMC7367177.

Biological target: ItaT(G115D) mutant protein (E. coli HS)
Experiment: crystal structure

ItaT(G115D) mutant protein (enzyme)
stoichiometry N: 2
